Reference: patent US20250009801A1

How the values were obtained:
[1] = biological target: human CLDN18.2 on cells (human) (UniProt P56856); assay: flow cytometry on DAN-G18.2 cells
[2] = biological target: human CLDN18.2 on cells (human) (UniProt P56856); assay: flow cytometry on CHO-GS-hCLDN18.2 cells
[3] = biological target: human CLDN18.2 on cells (human) (UniProt P56856); assay: flow cytometry on SUN601 (SNU601) cells

B1: Hz69H9-2.1 PG Ab (antibody, human IgG1, kappa, V domains shown)
VH: QVQLVQSGAEVKKPGSSVKVSCKASGYSFSSYNIHWVRQAPGQGLEWMGYIAPFQGDARYNQKFKGRVTITADKSTSTAYMELSSLRSEDTAVYYCARLNRGNALDYWGQGTLVTVSS
VL: DIVMTQSPDSLAVSLGERATINCKSSQSLFQSGNQRNYLTWYQQKPGQPPKLLIYWASTRESGVPDRFSGSGSGTDFTLTISSLQAEDVAVYYCQNNYIYPLTFGGGTKVEIKR
B1 gave an EC50 [1] of 6.95 nM, an EC50 [2] of 8.21 nM and an EC50 [3] of 261 nM.
